System: Saccharomyces cerevisiae
Assay: transcriptional activation domain activity (GFP:mCherry ratio, weighted mean of sorted bins, harmonized to initial dataset scale) (arbitrary fluorescence ratio units); higher = stronger transcriptional activation
Conditions: beta-estradiol 1 µM; induction time 4 h
Method in brief: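 For this assay, yeast diploids with a GFP reporter carried barcoded protein tiles at URA3, each fused to an estradiol-inducible synthetic transcription factor. Induction was a 1:5 dilution into SC with 1 uM beta-estradiol for 4 hours at 30 °C, followed by sorting into 8 bins by GFP:mCherry ratio and barcode sequencing. Tiles under 50 reads were dropped, and activation activity was calculated as the read-weighted mean of bin median fluorescence, averaged across barcodes and linearly mapped onto the initial dataset scale.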

| Sequence | transcriptional activation domain activity |
| --- | --- |
| AAPAAADPTPKKRGRPPRVSGAAEVAAAPEPAAEQPKKGRGRKAAEPAPEPVV | 23100 |
| QLEGDADLFLVPNFYVLRRISHLATTTLLRQLEAFSIRTPVFGVLLWKSLVAI | 49100 |
| RTKDEMKCTSCNAPTSRVCARCKHTLYCSSEHQKKHWKQHRQACVPYGAQLVK | 50600 |
| MVGLVGFWVLFLFFLCPFLFSCPSPSPPLRPSLYIFQISYGSFFSCFSFLFFS | 68700 |
| YALEWNGLVVRSFAYHTVFGIAKVGFFLYHFLFSSFVFSLLLSLVIFFFFFFF | 32600 |
| LIALPCLMAFATICFAFVAWKLYGEFAWTIYKHISADLRLKRRYLTYQIYIAL | 50200 |
| LPNVCLILPVYLRALVLNTLQVDKDQRTLLYESIRGHIVTLRGCKTGSKVIWL | 60800 |
| LLWSYLLPLFFSLLNELCKRFLPFPLFPLFFYIPCAFYPSPTLSVCSHPLLFI | 61500 |
| SSAASAGGEGEGKDGKRKKDGQEEEEEEDKGSKKVKKNDGGAKQTKEGAKTSD | < 6570 |
| DIETLLVYDYYPKPLLDIDLTIRGRHIYLPIEKTWLRYVPKPPWYLLVLLFAG | 60500 |
| MSQCLGTGYPIVCLVLICVRHGAMLDIREKAVEMIFTILLTSTVKVAKKLDKH | 49500 |
| VVPCLALVKKKSFFFVFFLLFLFLCTHLTACIAFSPFLFLFLFVFLFVALFSV | 40400 |
| MKRVLHVRNVARVNSGGKVRSVSALVVVGNGQGAAGYGEGRAVDAAAAVQKAT | 54500 |
| KNEKADKAEKTEKTEQQQSSGARRNRRGRGGNRGGEGGKESKEGGRPAAAAKT | 11200 |
| RRARAHAGMRTRARGGQRAEGVGGVQKARRQTAQGARGACRGREGRRAAGGRL | 8470 |
| SFTSKLNNPQFLGSLDLEILEELEKLISAQEFSRNFTEDVDESLQSEIDLMNY | 146000 |
| TNNWNPVHWDWNIFRQIVNFNWVLLFYFIFLLFSLFFHFIPVSCISIFYYFFS | 25100 |

| Sequence | transcriptional activation domain activity |
| --- | --- |
| SSSKKRKAVEVEEEEEEEEEEEEPVEEPEVEKEKEIVAAPVAKKAKVTAAATS | 29300 |
| YHFALSYKRWINRVIIMIWCKLWWLRWCAFMQLFFRRNLRYNFWWRWIRVAGV | 56700 |
| SLGCLVKQAEYQVDGRSIGMDGYLFFFFFACCCFLYTSGLSFLYLFWFFFLVF | 22900 |
| MLLLPFIPSYLTFFLIFLFVLFDFHFWFLFLFGLTFSCCCWTLSFCKTSLIWF | 57700 |
| FLSTFFIIPLDVMCRKAVLCCNKHFLPFLMVSMGPRFHSPHFSLNTFCHRLFF | 47300 |
| KQYCVRPNSGRIESGKEVEVQVLLQAMKNDPPADYKCRDKFLVQSVAITADRE | 53400 |
| CIKATLAPDSAIFVGPSALIFHVLQLSILIILLLKTGGPGSGKGTQCTRLAKD | 29600 |
| MFFFLSAFLLPFLFFLVGHSAPSFLYLVFLSFLFYYLLHFYFFLFFTYFCGSC | 59300 |
| ERRMGTCRSFHLRVGLPQLYAARLLIKASLDVRRLSVWQLGQLVWSIQKFSRQ | 32200 |
| LLMYTLFYMISEIFYSVAYDAHYFMFDPISVALVQCPMFACVVISVLYGHIWS | 57800 |
| VVDHCVSRFSGFTFLFFVLFTAFYMWQIISFVLGVLRLVDMYNFYTHLLKIPD | 54300 |
| MITTLFSFLLVFFPFFLFRFFLLLLLLNLFLLLLSHFLSLYHQPISPIPPRHH | 74200 |
| FLYTLHIYDGQEGYHFLFNSFGNGSEWLQWSDGEQWALLYAQNYTMIIWVWYM | 15000 |
| VGAVMVRGQDYVPAFDVAPDWESYDYAKLDPTNDDDKEFINNMWAWDKPVSVN | 57300 |
| ADIICMIYLIVNYTLLVFVSEVPYHQRARICLRLFCSCNFVTNFYATSAIVYR | 51100 |
| EAAAGSVKNEAGESSASSAARGGRGGRRGGGGPGSRGGKVGRGRGGRAGASQE | 32500 |
| TRCLLMYMYFLQDIGIYIYCILILNLFRKVRRLIPFPSRVLMVLHVITICIFT | 74300 |

— the supplement of paper PMC12636428
